Results taken from patent publication US20220016243A1 (published 2022).

Target: T1, TIGIT (T-cell immunoreceptor with Ig and ITIM domains), peripheral TIGIT receptors on patients' CD4+ T cells, … (human (patients), UniProt Q495A1 22-244)
T1 construct: whole, on cells; Endogenous receptor on patients' peripheral immune cells; Occupancy was measured ex vivo after dosing with tiragolumab
T1 sequence (looked up): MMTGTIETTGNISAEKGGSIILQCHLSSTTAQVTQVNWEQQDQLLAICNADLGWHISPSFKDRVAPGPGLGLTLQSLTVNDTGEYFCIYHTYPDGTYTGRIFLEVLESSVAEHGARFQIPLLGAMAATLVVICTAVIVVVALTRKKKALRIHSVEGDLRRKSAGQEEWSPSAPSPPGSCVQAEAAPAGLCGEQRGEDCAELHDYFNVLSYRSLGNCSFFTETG
Assay: receptor occupancy on peripheral CD8+ T cells and NK cells of patients dosed at 2-1200 mg Q3W (Phase Ia, Study GO30103)

B1: tiragolumab (antibody, human IgG1, kappa, V domains shown)
VH: EVQLQQSGPGLVKPSQTLSLTCAISGDSVSSNSAAWNWIRQSPSRGLEWLGKTYYRFKWYSDYAVSVKGRITINPDTSKNQFSLQLNSVTPEDTAVFYCTRESTTYDLLAGPFDYWGQGTLVTVSS
VL: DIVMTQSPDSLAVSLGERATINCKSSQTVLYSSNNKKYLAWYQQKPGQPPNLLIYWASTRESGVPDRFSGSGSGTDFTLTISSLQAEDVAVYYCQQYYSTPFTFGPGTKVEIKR
notes: also called MTIG7192A; RG6058
B1: binds.
